Reference: article PMC5656003

Tested on: O=[N+]([O-])c1ccc(O[C@@H]2O[C@H](CO)[C@@H](O)[C@H](O)[C@H]2O)cc1
Assay: pNP release, initial-rate kinetics
Assay type: biochemical, Bacteroides ovatus

Substance	Km [µM]	kcat [s⁻¹]	kcat/Km [M⁻¹ s⁻¹]
BACOVA_02738 (GH3) (Bacteroides ovatus)	2530 ± 130	0.212 ± 0.004	83.8
BoGH3MLG (Bacteroides ovatus)	2950 ± 140	59.5 ± 1.46	20200
